“Also recorded” adds a separate entry of the source.
Test: Detection of transglycosidase activity (HPLC, MS of transglycosylation product)
Assay type: biochemical
Details: donor 2 mM NGA2-Asn-Fmoc, acceptor 50 mM p-nitrophenylglucose, pH 6.0, 30° C.
Method: (§1) The transglycosidase activity of Endo-Om was detected by incubating the reaction solution containing a biantennary complex type sugar chain as the substrate, acceptor molecules (p-nitrophenylglucose), and an Endo-Om partially purified enzyme solution at 30° C. for 3 hours, and then subjecting it to HPLC after the completion of the reaction; a new peak different from the hydrolysate was detected, and was identified by MS analysis to be a transglycosylation product including an acceptor molecule to which a biantennary complex type sugar chain is added (FIG. 7).
as §1, with “Endo-Cp” for “Endo-Om”, “11).” for “7).”
as §1, with “of Endo-Pa” for “of Endo-Om”, “an Endo-Pa” for “an Endo-Om”, “for 16” for “for 3”, “(FIG. 15).” for “(FIG. 7).”
The transglycosidase activity of Endo-Om was detected as follows. The reaction solution containing a sodium acetate buffer at a final concentration of 100 mM (pH 6.0), 2 mM NGA2-Asn-Fmoc, 50 mM acceptor molecule (p-nitrophenylglucose), and an Endo-Om purified enzyme solution (total volume: 10 μl) was incubated at 30° C. for 3 hours, and heated at 95° C. for 5 minutes to stop the enzyme reaction. The total amount of the reaction solution was subjected to HPLC by the method described in Example 4, and detection was carried out using a UV detector (274 nm). In addition, the peak corresponding to a transglycosylation product was collected, freeze-dried, and then redissolved in Milli-Q water and subjected to mass spectrometry using MALDI-QIT-TOFMS (AXIMA-QIT, Shimadzu Co., Ltd.), thereby identifying the transglycosylation product.
The transglycosidase activity of Endo-Cp was detected as follows. […]
The transglycosidase activity of Endo-Pa was detected as follows. […]

B1: Endo-Pa: endo-β-N-acetylglucosaminidase from Pichia anomala ATCC36904, amino acid sequence SEQ ID NO. 9, 656 amino acids (protein, listed as Pichia anomala)
chain: MQHDHAAIKFEEDSISSQRFSSLDEVEKWYNTKNRSPLDDLRIPRESLSHYNRFRDNNDEIKVLVCHDFKGNYQEGEDENPLGYFPHSSGQHYFIQFPSLVDLFIFFSHYKIAVPPVSWINSLHRQGIPVLGTLIFEGTDVSESDKLLEKNENGDFKYLEILCELVRHYGFDGWLVNMESHFSSVAKAQDLLLFDEALRSTLHLKVPGSKLIWYDSLITQKNRVFYQNAVNEWNYDHFSTSDLFFTNYWWNEEDLKRNILNIGLQGVKQKLFVGVDIWGRGSRIGNGGFESGLAINYLKRYSTNVALFAPAWTYENFEEDQFLIKDRKFWIGDQTSDETGGSVATYVSHYTTPVYVKDQNVKFYTNFSVGEGTKYRVFAHTVFKNNWVNGNLQLPTPIIDNEKRIDIYYKESFNGGSSLKVTQRNSILNDGKSNILQLFSFKNDIHSNNLNVSVSFKYLSEIPLNSTFQLEIKFYIERRYRSVTRVRDGTFKLPLAFSNKNWKYIETSFALPRLQIREHFVLEGLQIRWVDNVDELSSSIGTSGDFTESWIIVPQNSDPNAVYELLIGDLLVEGIKTANGNIDAVTKLSRKITLDSRSILATWKDDTEVLYWIIYVNAKFLGIAHKSLWRVQRGDKLRVDVFTRSGKLVKGEDIFI
Transglycosidase activity (16 hours): significant transglycosidase activity was confirmed; also recorded: has activity for transferring the cleaved sugar chain to any acceptor molecule

B2: Endo-Cp: endo-β-N-acetylglucosaminidase from Candida parapolymorpha DL-1 ATCC26012, amino acid sequence SEQ ID NO. 5, 745 amino acids (protein, listed as Candida parapolymorpha)
chain: MPRNTAKHSSLPQTNLPLSSLESSFFDSLDELANWERRIHEKSFELDELNKPTEKLAHYTRARQQSTSEDVKLLVCHDLKGGYQVNEDEDPLGYFPHPDGQHYFLQYPQLVDKFVYFSHHRVSIPPVSWINVCHRNAIKCLGTVIFEGNTYRDFEEADKLLTKQDGEYVFVRCLVALVEYFQFDGYLFNIETRFSNTRIASLLEPFLEQLRAELHVRNPSTELIWYDSYIYPENRVLYKNGVTEANYNFFSCCDSFFTNYWWNVKHLQDNIKNVGVLGSRLKVYAGYDVWGRGTMIGKGGYDSALACQMIKKYRSNVALFAPAWTYEYLARKDFTQNDTRFWIGLFDGESSMATTFKPYSSPLYKINDSNFVFYTNFGSGEGCAFYECGEKVYRDNWVNGSLQMEIPYAIHTRNKNGIQWTLSKEDSFHGGSCVEIKYNEVVDDKGYQVFNNQTINSFSLFSFVQDCSFPTVNVKLTYKLNHKTKSFFKLKIGYYIERRYRTVQKVRSGCLVVPLLSTNDQWFTIEEPFHVSLQNSHEFIVLDSATIFYEETEDPFMRAHVVEDQSTSSVIDNEEYEKLMNSEIYFDDEDEDWILVPSDISMESTDNGGRENHTWKVISNQIRKKHPKSHPSTSPVLKLGELAIINANDYPSDSFFKLMPVNSIDVRRWEGKILLIWKTNQDSVLYHLIFVDDVFQGISLVSKFVFEDQAVDEKSFKTKSGGSTKVRIDTVNRLGILVKGTDM
Transglycosidase activity (3 hours): significant transglycosidase activity was confirmed; also recorded: has activity for transferring the cleaved sugar chain to any acceptor molecule

B3: Endo-Zr: endo-β-N-acetylglucosaminidase from Zygosaccharomyces rouxii ATCC2623, amino acid sequence SEQ ID NO. 13, 639 amino acids (protein, listed as Zygosaccharomyces rouxii)
chain: MKRINQVPGKPEITSLYFDDLNSLQRWFDKGFMDSRDLSNVPKERYSNYVKFEKDSIITIPNLSARKTEIIVCHDFKGGYQSGHDLYPNGQYGTESCKPYSLRYPEIVDKFVYFSHHCVTIPPSPWTNYLHRHSIPVLGTLILEHYPHNGELFKKNAKGEFLYVKYLVELCRKFHFEGWLINFETVFGNNSKQVIPFLRELTARVECEIYGGSVIWYDAFTTFSNKPSHQNEVNLFNYDAYENSSQFMTNYMWDSHNVGNSLRNVGALGMHSHVALGVDVWGRNMQVCRGGFESNIAIYYAKRFGTNAVIFAPGWTYENFGEDQFYEKDDIFWGNIKSTLQLDSYSDSQLSSWFVSESKKTRYFTTFFSTGSGNFFNLNGRRISNDNWVQLGLSTPFPVNSHSYLSFKDSFVGGSCLALPLSPMENGKLHLFRFEQFIKDQQKTSDSEIRVKLSYKSLGALPPVKLVIKCFVIRRGKRSKTILKVDDVSLVLPLSHSACQTAQGSTKWAVVEQIVPLPSLESRFLEEYYVEDAHLEWTMDNNHDEWLMVPERTEDLDCKLLIGSLCLEIGPHEDNNKRQIVRNGPQLSWQDNESSFMWLKLQDGKLDSVLFTPTTKVNGKQPTILECGRNGTLKFVVKK
Transglycosidase activity (16 hours): not detected; also recorded: transglycosidase activity was not confirmed

B4: Endo-Om: endo-β-N-acetylglucosaminidase from methylotrophic yeast Ogataea minuta IFO10746, amino acid sequence SEQ ID NO. 1, 772 amino acids (protein, listed as Ogataea minuta)
chain: MAQSQLLGGAVRPVFFDKLEELRRWHTQSANLSRESELDSLNVATEPFSSYERAQTGSGSRSSEPVPGDKEDPPIKLMVCHDFKGGYQDYEDAQPLGYFPHPTGSRYFLQYPQLIDQFVYFSHHRVTVPPVNWINFCHRNGIKCFGTVIFEGNASKDFEELDRLVSRDEKGDFVFVDALIKLAAHYGFDGYLLNIETTFSNTKIAADLEPFAEQLKSGLHCLDSKNELIWYDSYVFPANKVSYTNGVTESNYNFFSLSDAFFSNYWWNIKNLQENIKNVGVLGVQKKIYVGYDVWGRGTLVGKGGFDSSLACKMIAKFKSNVALFAPAWTYESLGPKDFNQNDARFWIGLFENESSISSTVPPHSSAVYKINESSFIFYTNFSSGEGNRFFSKGSEVYRKNWVNGSLQFDLPIDLHRKDKNGLQWALDKSDAFHGGACLEIKYSEIKDENGYQIFNNQMVSDFTLFNFTKECHFPTVNVKVTYKLNHKTKSTFKIKIKYIIERRFRSVQTVRTGYLTIPLLSTSGKWFTVEESFQINLQTSHEYIVLESAHVTYDEDRSADSFFRSYIVEDSAITSVIDNEEYEKLINSEIYNDDEDEDWILVPSDVSISSSESQSNDSKTQYLGRKLFGNKSTPKTRTLEGTAPLLRIGEFAIISANNYPSSNFLAVTSVKSIESSRLEGDSLVLLNWQVGEGHQKGVCYYIIYVNGAVVGLSVAPKFIYQDTELASENSASARSNYKKSGLGSSSDRKSKVRVDSVDKLGNVFTGSEVWV
Transglycosidase activity (3 hours): has activity for transferring the cleaved sugar chain to any acceptor molecule; also recorded: significant transglycosidase activity was confirmed
